Reference: patent US20210214436A1 (DRAGONFLY THERAPEUTICS, published 2021)
One block for each binder: values may come before it.

Target: T1, BCMA expressed on myeloma cells (MM.1R, KMS12-PE) (human, UniProt Q02223 1-184)
T1 construct: Human multiple myeloma cell lines expressing BCMA; also called surface BCMA; MM.1R myeloma cells
T1 sequence: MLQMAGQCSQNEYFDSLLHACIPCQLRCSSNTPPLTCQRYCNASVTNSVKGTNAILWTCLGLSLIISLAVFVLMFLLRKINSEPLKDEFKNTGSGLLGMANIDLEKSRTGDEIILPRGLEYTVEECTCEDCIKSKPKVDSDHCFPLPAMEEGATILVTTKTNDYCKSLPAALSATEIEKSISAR
Experiment: flow cytometry on MM.1R cells
Description: F4-TriNKETs were diluted, and were incubated with MM.1R cells. […] Cells were analyzed by flow cytometry, binding MFI to cell expressed BCMA was normalized to secondary antibody controls to obtain fold over background values.

binding result: binds
B1: A49-F4-TriNKET-BCMA (bispecific antibody, V domains shown)
VH 1: EVQLLESGGGLVQPGGSLRLSCAASGFTFSDNAMGWVRQAPGKGLEWVSAISGPGSSTYYADSVKGRFTISRDNSKNTLYLQMNSLRAEDTAVYYCAKVLGWFDYWGQGTLVTVSS
VL 1: EIVLTQSPGTLSLSPGERATLSCRASQSVSDEYLSWYQQKPGQAPRLLIHSASTRATGIPDRFSGSGSGTDFTLAISRLEPEDFAVYYCQQYGYPPDFTFGQGTKVEIK
VH 2: EVQLVESGGGLVKPGGSLRLSCAASGFTFSSYSMNWVRQAPGKGLEWVSSISSSSSYIYYADSVKGRFTISRDNAKNSLYLQMNSLRAEDTAVYYCARGAPMGAAAGWFDPWGQGTLVTVSS
VL 2: DIQMTQSPSSVSASVGDRVTITCRASQGISSWLAWYQQKPGKAPKLLIYAASSLQSGVPSRFSGSGSGTDFTLTISSLQPEDFATYYCQQGVSFPRTFGGGTKVEIK
notes: Only variable domains can be tied to the molecule

binding result: binds
B2: BCMA monoclonal antibody (EM-901) (antibody, V domains shown)
VH: B1 VH 1
VL: B1 VL 1
